Data: article PMC5789952 (Proceedings of the National Academy of Sciences of the …, 2017)

How the values were obtained:
IRF9-DBD = biological target: T1, IRF9-DBD (Mus musculus, UniProt Q61179 1-116); experiment: EMSA
T1 sequence: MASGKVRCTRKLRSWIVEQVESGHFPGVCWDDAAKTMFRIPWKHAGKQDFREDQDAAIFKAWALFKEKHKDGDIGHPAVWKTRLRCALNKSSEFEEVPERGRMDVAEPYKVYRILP

STAT2_(133–679) = biological target: T2, STAT2_(133–679) (mouse, UniProt Q9WVL2 133-679); experiment: SEC-MALS
T2 sequence (looked up): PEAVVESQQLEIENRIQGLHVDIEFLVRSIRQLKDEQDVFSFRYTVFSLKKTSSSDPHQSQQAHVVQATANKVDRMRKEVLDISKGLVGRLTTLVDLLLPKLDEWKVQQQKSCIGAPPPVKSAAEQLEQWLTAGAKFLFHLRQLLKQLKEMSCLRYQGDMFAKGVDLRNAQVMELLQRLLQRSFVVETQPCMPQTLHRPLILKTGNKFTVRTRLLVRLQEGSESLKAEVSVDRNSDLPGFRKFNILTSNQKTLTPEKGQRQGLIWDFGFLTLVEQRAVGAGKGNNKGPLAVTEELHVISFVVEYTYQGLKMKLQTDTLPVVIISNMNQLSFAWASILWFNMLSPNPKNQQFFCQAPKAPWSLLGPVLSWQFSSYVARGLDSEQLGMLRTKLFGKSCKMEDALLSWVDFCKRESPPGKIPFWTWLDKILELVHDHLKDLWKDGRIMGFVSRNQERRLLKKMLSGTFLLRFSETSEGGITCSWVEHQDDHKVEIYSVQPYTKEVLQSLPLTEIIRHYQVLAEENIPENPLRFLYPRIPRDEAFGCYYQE

IRF9–IAD_(182–385) = biological target: T3, IRF9–IAD_(182–385) (mouse, UniProt Q61179 182-385); experiment: SEC
T3 sequence (looked up): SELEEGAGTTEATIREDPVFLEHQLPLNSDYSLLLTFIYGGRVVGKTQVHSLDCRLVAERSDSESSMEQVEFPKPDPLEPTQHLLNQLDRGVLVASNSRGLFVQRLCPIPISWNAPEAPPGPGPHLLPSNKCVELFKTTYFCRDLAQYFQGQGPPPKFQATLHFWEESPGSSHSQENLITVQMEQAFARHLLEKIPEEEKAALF

[1] = biological target: T4, STAT2 (133–748) of the purified STAT1–STAT2 heterodimer (mouse, UniProt Q9WVL2 133-748); experiment: tandem affinity co-purification
T4 sequence (looked up): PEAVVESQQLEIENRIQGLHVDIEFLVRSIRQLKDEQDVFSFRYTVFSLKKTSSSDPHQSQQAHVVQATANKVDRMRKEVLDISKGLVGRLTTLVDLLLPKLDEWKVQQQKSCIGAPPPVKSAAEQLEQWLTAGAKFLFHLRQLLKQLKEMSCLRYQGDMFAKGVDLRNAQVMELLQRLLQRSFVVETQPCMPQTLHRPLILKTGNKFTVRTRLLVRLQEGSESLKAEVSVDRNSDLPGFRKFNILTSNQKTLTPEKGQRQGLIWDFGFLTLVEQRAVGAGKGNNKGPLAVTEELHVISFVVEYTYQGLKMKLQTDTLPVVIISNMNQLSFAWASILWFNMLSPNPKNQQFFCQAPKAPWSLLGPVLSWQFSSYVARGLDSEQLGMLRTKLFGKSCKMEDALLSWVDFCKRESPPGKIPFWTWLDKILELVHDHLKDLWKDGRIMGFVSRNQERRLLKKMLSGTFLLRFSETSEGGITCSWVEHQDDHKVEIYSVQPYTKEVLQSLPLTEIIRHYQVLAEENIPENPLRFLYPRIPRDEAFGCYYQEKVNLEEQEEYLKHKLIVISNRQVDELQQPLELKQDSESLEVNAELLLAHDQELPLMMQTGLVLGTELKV

B1: ADAR ISRE 29 bp (dsDNA)
DNA 1: TAAGCCTTTTCAAGGAAACGAAAGTGAAC
DNA 2: AGTTCACTTTCGTTTCCTTGAAAAGGCTT
IRF9-DBD
  binding result: binds

B2: IRF9_(182–399) (domain or fragment, mouse, UniProt Q61179 182-399, looked up)
chain: SELEEGAGTTEATIREDPVFLEHQLPLNSDYSLLLTFIYGGRVVGKTQVHSLDCRLVAERSDSESSMEQVEFPKPDPLEPTQHLLNQLDRGVLVASNSRGLFVQRLCPIPISWNAPEAPPGPGPHLLPSNKCVELFKTTYFCRDLAQYFQGQGPPPKFQATLHFWEESPGSSHSQENLITVQMEQAFARHLLEKIPEEEKAALFLLQHTEQSPSALGH
STAT2_(133–679)
  stoichiometry N: 1

B3: STAT2_(133–315) (domain or fragment, mouse, UniProt Q9WVL2 133-315, looked up)
chain: PEAVVESQQLEIENRIQGLHVDIEFLVRSIRQLKDEQDVFSFRYTVFSLKKTSSSDPHQSQQAHVVQATANKVDRMRKEVLDISKGLVGRLTTLVDLLLPKLDEWKVQQQKSCIGAPPPVKSAAEQLEQWLTAGAKFLFHLRQLLKQLKEMSCLRYQGDMFAKGVDLRNAQVMELLQRLLQRS
IRF9–IAD_(182–385)
  binding result: binds

B4: STAT1 (136–713) of the purified STAT1–STAT2 heterodimer (domain or fragment, mouse, UniProt P42225 136-713, looked up)
chain: LDKQKELDSKVRNVKDQVMCIEQEIKTLEELQDEYDFKCKTSQNREGEANGVAKSDQKQEQLLLHKMFLMLDNKRKEIIHKIRELLNSIELTQNTLINDELVEWKRRQQSACIGGPPNACLDQLQTWFTIVAETLQQIRQQLKKLEELEQKFTYEPDPITKNKQVLSDRTFLLFQQLIQSSFVVERQPCMPTHPQRPLVLKTGVQFTVKSRLLVKLQESNLLTKVKCHFDKDVNEKNTVKGFRKFNILGTHTKVMNMEESTNGSLAAELRHLQLKEQKNAGNRTNEGPLIVTEELHSLSFETQLCQPGLVIDLETTSLPVVVISNVSQLPSGWASILWYNMLVTEPRNLSFFLNPPCAWWSQLSEVLSWQFSSVTKRGLNADQLSMLGEKLLGPNAGPDGLIPWTRFCKENINDKNFSFWPWIDTILELIKNDLLCLWNDGCIMGFISKERERALLKDQQPGTFLLRFSESSREGAITFTWVERSQNGGEPDFHAVEPYTKKELSAVTFPDIIRNYKVMAAENIPENPLKYLYPNIDKDHAFGKYYSRPKEAPEPMELDDPKRTGYIKTELISVSEVH
[1]
  binding result: binds
